Test results from patent publication US20080058263A1 (published 2008).

T1: VEGFR-3-Fc (UniProt P35916 25-328)
T1 construct: domain: first three Ig domains; conditioned supernatant of 293T cells; also called VEGFR-3-Fc fusion protein; not shown: Fc fragment of the pIg vector
T1 sequence (looked up): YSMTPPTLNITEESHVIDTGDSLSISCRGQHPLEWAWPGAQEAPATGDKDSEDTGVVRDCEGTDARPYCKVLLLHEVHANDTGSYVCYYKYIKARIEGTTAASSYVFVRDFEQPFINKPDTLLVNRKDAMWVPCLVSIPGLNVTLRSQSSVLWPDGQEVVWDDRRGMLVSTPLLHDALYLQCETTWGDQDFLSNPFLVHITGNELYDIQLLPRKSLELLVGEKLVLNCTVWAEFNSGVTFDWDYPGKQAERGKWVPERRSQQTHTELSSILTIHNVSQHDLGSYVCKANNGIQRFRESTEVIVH


What was measured:
Experiment in all cases: receptor-Fc IP
[1] = target: T2, VEGFR-2-Fc (UniProt P35968 20-322)
T2 construct: domain: first 3 Ig domains; conditioned supernatant of 293T cells; also called VEGFR-2-Fc fusion protein; not shown: Fc fragment of the pIg vector
Outline: (§1)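 Binding of ligand from sample supernatant measured by pentahistidine-antibody immunoprecipitation. IP mix: PBS with 1.5% BSA, 0.06% Tween 20, 3 μg/ml heparin and 400 ng/ml fusion protein, added 1:2 to sample supernatant.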

[2] = target: T3, VEGFR-1-Fc (UniProt P17948 27-338)
T3 construct: domain: first three Ig domains; expressed in Drosophila S2 cells, purified on Protein A sepharose; also called VEGFR-1-Fc fusion protein; not shown: Fc fragment from the Signal-pIgPlus vector
Outline: as §1

[3] = target: T1, VEGFR-3-Fc
Outline: as §1

T2 sequence (P35968 20-322): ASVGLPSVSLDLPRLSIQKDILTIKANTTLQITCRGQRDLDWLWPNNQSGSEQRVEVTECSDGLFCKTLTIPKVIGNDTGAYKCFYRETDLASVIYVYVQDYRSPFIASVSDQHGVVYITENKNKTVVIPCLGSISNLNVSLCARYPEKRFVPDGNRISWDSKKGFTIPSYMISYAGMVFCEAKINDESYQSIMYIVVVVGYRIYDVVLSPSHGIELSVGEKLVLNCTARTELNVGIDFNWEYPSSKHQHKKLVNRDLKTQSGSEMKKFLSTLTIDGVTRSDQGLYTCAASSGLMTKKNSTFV
T3 sequence (P17948 27-338): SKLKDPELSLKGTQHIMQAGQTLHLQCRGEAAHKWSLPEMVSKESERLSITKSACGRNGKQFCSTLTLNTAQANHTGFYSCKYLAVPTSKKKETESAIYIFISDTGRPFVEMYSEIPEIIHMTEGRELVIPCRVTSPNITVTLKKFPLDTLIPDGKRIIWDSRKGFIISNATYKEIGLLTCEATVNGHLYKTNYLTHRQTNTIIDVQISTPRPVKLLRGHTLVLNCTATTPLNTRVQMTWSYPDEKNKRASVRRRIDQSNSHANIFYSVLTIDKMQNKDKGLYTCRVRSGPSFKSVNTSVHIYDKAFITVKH

Row | Binder | binding result [1] | binding result [2] | binding result [3]
1 | 13-1 (ligand) GQNHHEVVKFMDVYQRSYCHPIETLVDIFQEYPDEIEYIFKPPCVSVYRCGGCCNDEGLECVPTEESNITMQIMRIKPHQGQHIGEMSFLQHNKCECRPKKD | binds | binds | no binding
2 | 13-7 (ligand) GQNHHEVVKFMDVYQRSYCHPIETLVDIFQEYPDEIEYIFKPPCVSVYRCGGCCNSEGLQCVPTEESNITMQIMRIKPHQGQHIGEMSFANHTSCRCMSKLD | binds | binds | no binding
3 | 14-5 (ligand) GQNHHEVVKFMDVYQRSYCHPIETLVDIFQEFGVATNTFFKPSCVPLMRCGGCCNDEGLECVPTEESNITMQIMRIKPHQGQHIGEMSFANHTSCRCMSKLD | no binding | binds | no binding
4 | 14-3 (ligand) GQNHHEVVKFMDVYQRSYCHPIETLVDIFQEFGVATNTFFKPSCVPLMRCGGCCNSEGLQCVPTEESNITMQIMRIKPHQGQHIGEMSFLQHNKCECRPKKD | binds | binds | no binding
5 | 13-9 (ligand) GQNHHEVVKFMDVYQRSYCHPIETLVDIFQEYPDEIEYIFKPPCVSVYRCGGCCNDEGLECVPTEESNITMQIMRITVPLSQGPKPVTISFLQHNKCECRPKKD | no binding | binds | no binding
6 | 21-8 (ligand) AHYNTEILKSIDNEWRKTQCMPREVCIDVGKEYPDEIEYIFKPSCVPLMRCGGCCNSEGLQCMNTSTSYLSKTLFEIKPHQGQHIGEMSFANHTSCRCMSKLD | no binding | no binding | no binding
7 | 23-2 (ligand) AHYNTEILKSIDNEWRKTQCMPREVCIDVGKEYPDEIEYIFKPPCVSVYRCGGCCNDEGLECMNTSTSYLSKTLFEIKPHQGQHIGEMSFLQHNKCECRPKKD | no binding | no binding | no binding
8 | 51-6 (ligand) AHYNTEILKSIDNEWRKTQCMPIETLVDIFQEYPDEIEYIFKPSCVPLMRCGGCCNDEGLECMNTSTSYLSKTLFEIKPHQGQHIGEMSFANHTSCRCMSKLD | no binding | no binding | no binding
9 | 71-6 (ligand) GQNHHEVVKSIDNEWRKTQCMPREVCIDVGKEYPDEIEYIFKPSCVPLMRCGGCCNDEGLECMNTSTSYLSKTLFEIKPHQGQHIGEMSFANHTSCRCMSKLD | no binding | no binding | no binding
10 | 23-8 (ligand) AHYNTEILKSIDNEWRKTQCMPREVCIDVGKEYPDEIEYIFKPPCVSVYRCGGCCNSEGLQCMNTSTSYLSKTLFEIKPHQGQHIGEMSFANHTSCRCMSKLD | no binding | no binding | no binding
11 | 22-8 (ligand) AHYNTEILKSIDNEWRKTQCMPREVCIDVGKEFGVATNTFFKPPCVSVYRCGGCCNSEGLQCMNTSTSYLSKTLFEIKPHQGQHIGEMSFANHTSCRCMSKLD | binds | no binding | binds
12 | 53-8 (ligand) AHYNTEILKSIDNEWRKTQCMPIETLVDIFQEYPDEIEYIFKPPCVSVYRCGGCCNSEGLQCMNTSTSYLSKTLFEIKPHQGQHIGEMSFANHTSCRCMSKLD | no binding | no binding | no binding
13 | 53-6 (ligand) AHYNTEILKSIDNEWRKTQCMPIETLVDIFQEYPDEIEYIFKPPCVSVYRCGGCCNDEGLECMNTSTSYLSKTLFEIKPHQGQHIGEMSFANHTSCRCMSKLD | no binding | no binding | no binding
14 | 24-6 (ligand) AHYNTEILKSIDNEWRKTQCMPREVCIDVGKEFGVATNTFFKPSCVPLMRCGGCCNDEGLECMNTSTSYLSKTLFEIKPHQGQHIGEMSFANHTSCRCMSKLD | no binding | no binding | no binding
15 | 23-4 (ligand) AHYNTEILKSIDNEWRKTQCMPREVCIDVGKEYPDEIEYIFKPPCVSVYRCGGCCNSEGLQCMNTSTSYLSKTLFEIKPHQGQHIGEMSFLQHNKCECRPKKD | no binding | no binding | no binding
16 | 73-6 (ligand) GQNHHEVVKSIDNEWRKTQCMPREVCIDVGKEYPDEIEYIFKPPCVSVYRCGGCCNDEGLECMNTSTSYLSKTLFEIKPHQGQHIGEMSFANHTSCRCMSKLD | no binding | no binding | no binding

More lines, now with the values ahead:

Row | binding result [1] | binding result [2] | binding result [3] | Binder
17 | binds | binds | no binding | 13-5 (ligand) GQNHHEVVKFMDVYQRSYCHPIETLVDIFQEYPDEIEYIFKPPCVSVYRCGGCCNDEGLECVPTEESNITMQIMRIKPHQGQHIGEMSFANHTSCRCMSKLD
18 | no binding | binds | no binding | 81-9 (ligand) AHYNTEILKFMDVYQRSYCHPIETLVDIFQEYPDEIEYIFKPSCVPLMRCGGCCNDEGLECVPTEESNITMQIMRITVPLSQGPKPVTISFLQHNKCECRPKKD
19 | no binding | binds | no binding | 81-13 (ligand) AHYNTEILKFMDVYQRSYCHPIETLVDIFQEYPDEIEYIFKPSCVPLMRCGGCCNDEGLECVPTEESNITMQIMRITVPLSQGPKPVTISFANHTSCRCMSKLD
20 | binds | binds | no binding | 81-15 (ligand) AHYNTEILKFMDVYQRSYCHPIETLVDIFQEYPDEIEYIFKPSCVPLMRCGGCCNSEGLQCVPTEESNITMQIMRITVPLSQGPKPVTISFANHTSCRCMSKLD
21 | binds | binds | no binding | 81-11 (ligand) AHYNTEILKFMDVYQRSYCHPIETLVDIFQEYPDEIEYIFKPSCVPLMRCGGCCNSEGLQCVPTEESNITMQIMRITVPLSQGPKPVTISFLQHNKCECRPKKD
22 | no binding | binds | no binding | 14-1 (ligand) GQNHHEVVKFMDVYQRSYCHPIETLVDIFQEFGVATNTFFKPSCVPLMRCGGCCNDEGLECVPTEESNITMQIMRIKPHQGQHIGEMSFLQHNKCECRPKKD
23 | no binding | no binding | binds | 12-14 (ligand) GQNHHEVVKFMDVYQRSYCHPIETLVDIFQEFGVATNTFFKPPCVSVYRCGGCCNDEGLECMNTSTSYLSKTLFEITVPLSQGPKPVTISFANHTSCRCMSKLDL
24 | no binding | binds | no binding | 13-11 (ligand) GQNHHEVVKFMDVYQRSYCHPIETLVDIFQEYPDEIEYIFKPPCVSVYRCGGCCNSEGLQCVPTEESNITMQIMRITVPLSQGPKPVTISFLQHNKCECRPKKD
25 | binds | no binding | binds | 22-6 (ligand) AHYNTEILKSIDNEWRKTQCMPREVCIDVGKEFGVATNTFFKPPCVSVYRCGGCCNDEGLECMNTSTSYLSKTLFEIKPHQGQHIGEMSFANHTSCRCMSKLD
26 | no binding | no binding | no binding | 73-8 (ligand) GQNHHEVVKSIDNEWRKTQCMPREVCIDVGKEYPDEIEYIFKPPCVSVYRCGGCCNSEGLQCMNTSTSYLSKTLFEIKPHQGQHIGEMSFANHTSCRCMSKLD
